Assay results published in the domain aggregation screens of Martell et al. (2025).

Assay: soluble fraction after stress (log2 fold change); higher = more stays soluble; pooled small domains, quantitative proteomics
Settings: stress: 75 degC
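Note: 20 min heating vs room temperature control held 20 min.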

| Sequence | soluble fraction (log2) |
| --- | --- |
| HMRWAAIMGREVAAHSTPESLVEGKLHIRTDTTAWATQLRLMSADIVRRLNEVLGEGTVLEVDVRG | -2.22 |
| HMRWSDQKEIVTLSLDHVLVEKGRKTKEYSWREFRTFTAFEIKKSSKDQINLGFKSKGNTVIIGNF | -1.2 |
| HMSAAELFEERQRQYLRGRKSTKNIADNHGTIILRAGETITDQAIDKAKVAGKLVELVMNNE | 0.104 |
| HMSADDSDDRKGIDAWLTQLLANGSVKATEVYSAADAAGYSKDQAKRAKRRLAIEAVREAMDGPWFWRLD | -0.853 |
| HMSAEDQRRASQEAAYRFMQVMAGNEAGFEDAARALFAGDNHRFEVLIQSWPDDVRDHVSLLSVDAFA | -0.651 |
| HMSAEVMLRRLIDENDPSSENARYILAVMLERKKILAPVDVKNEKKSKMLFYEHQKTGEAFIVRDP | -0.0597 |
| HMSAEVSEIEIQRIISYYRNQNGVPDKYNEIFDRIAAQYTDEQLKVISNFLPSDVKQYLSFNNEKYKSLG | -0.904 |
| HMSAGKKSFTNSEFRRFLDALGEGLIVKHKKLGEGVVVEIRGDKAVIQFGDEQRLYELKTLYEYDLLR | -0.628 |
| HMSALAQDGDLVQLQGAGYKSHILRLKAGEVLQTHRGVIQHDAVIGQPWGARLQSHTGSPFYLFQPGLADL | -0.684 |
| HMSALTELPVKTVNGKKYHYYVVKQHETVYALSKRFGITPEQLIKYNPSAEDGLQIDQELLFPATEI | -0.353 |
| HMSANVSMEEALRRTSQAHSLAGKWMRRVLQMAQGRDLIEQMQREAQEAHLPELIGMSVQLEFIRRG | -0.107 |
| HMSAPEGWMNRGDLRDNFRIQYPVTDRIIASYRESHPEWFGTYLSKTSKSLEYFHPDLVAKVREAAN | -0.0761 |
| HMSAPQKWDGSLQDFIRFKQEAKTLMDNIPNKRLALNAILETISDGKMRKRLAKYDGPESALKSLELEFGN | -0.1 |
| HMSAQDLIVRRDSARIEARVTEISPTEIRYKRASNPDGPTYVLPLGDVRSIRYANGEEEVFAPA | -0.223 |
| HMSAQQTFLRDAMRRLNMTRDSFAERIGVRRRALDTWLLPEDSSEYRTMPSIVEKFVGEILGREA | -0.65 |
| HMSARKVTVALHTRDHADRLRRLLKHEGVSADLVAARLSHKLTDHPIEVRVNEDDIPAVLRIIENIEIF | -1.61 |
| HMSASLPAAVEDPDLPYRVGAKLRHARWGEGLLVGIQREGSDVIATVHFASVGRKRLSLQYAHLEE | -2.17 |
| HMSATIMVLRASEDIPVGTEIKDNHLTTVEVGSYGLPEGAINDKDTVLGKVAQTNIIKGDYFFPQKLGG | 0.339 |
| HMSDAQIKASINDLWFKYNLETFAKLNLNVNQGRVLVTGIVQNPEHRLEAIRLVWTVDGVQQVINEIQVAE | -2.33 |
| HMSDDIPVHYRLDVNDAARALKLLTDNGFSAETAESGLNVYMTRLQSAEAARLLVENNIAVYGLTAV | -0.297 |
| HMSDDLIILGYSMLNNALKAFHIDPDSIKKKHWDKLAQDYHLKNKNQILTDIALGKRVNIMVAHQLTTIMD | -0.738 |
| HMSDDSYLVALAEAYKNATSWDIRRQVLSIMTGVSSYKEISRYIPGLTQYRLSISNLHRLQYGRAAPVP | 0.0264 |
| HMSDEAGKVLQLLRENGGYLPYNDRSDPEDIYAFFSMSKKTFKMTAGNLYKQKKIIFTNTGIKLTE | -3.51 |
| HMSDEVNTDKAFRAIDSTLNRNVKGIAPRDHTLLRNTMITYFKSNDYIDYDTMIQSTLENYKPTELEQDKM | 0.0497 |
| HMSDGHLIKVLEVLDGGEAFLGRTANGGTARFSLGQLADIRRGSVVFVSEDRWEVVPDSAWPEI | -1.1 |
| HMSDGIPDLRNLNFLSPQEGDYLNESDRVFGVTINGDGQAYPLRIVNAHEMVNDTLGGEPISLM | 0.124 |

| Sequence | soluble fraction (log2) |
| --- | --- |
| HMSDHKNANFTKVVKVAQELLQDEDDKAGITPTLIEEKISAVLAMNRRWAEGLDRAAVADELIRRFSIW | -0.847 |
| HMSDIATLVPGPTDAELAASALRGLDAALDADTPVRLSLGEPGGEVEVPRSVLAALARVLDSFAHGEGVTL | -0.0408 |
| HMSDIISEIESQVMFKLATYEITNATEKMIEALINSEINDRRTLGFPIPNEQGRIFLVRSIQNKLAV | -2.77 |
| HMSDIIVQGNRRLDTDLIITDSQIREIGTDEKSLSLAVKNLYKTGYFENVQIFKDNSVVFINVKENQ | -0.618 |
| HMSDIQKGTQINLVNEPLYVSSKTSIVSTYKTGTYYTWGFEANNRIAITNKLENIGVKGQVTGWINKP | -1.73 |
| HMSDKFNALWIILNKLDKKEKVTARSLMEDLEVSERSVYRYITTLQVAGFPVDYDRAVNSYVFSDGYTLK | -4.11 |
| HMSDKLTLPVQINGVFRYTIEINPSMQKDEIIDLVKNEERTAKYKQDKEIKNVIVVPGKIVNIII | -0.339 |
| HMSDLPLLEHARQNLSDDEFRILELTTIYGYRRVEVAKMLGEPISTINWKYNKLIKKVKTFYGEVYN | -0.998 |
| HMSDLVATKEQVVEAYKYGLGLGLDNSTLKMLLFDIRGEDVADQDKISDGMTVSEIEIWKEGMRTIAEEYL | -0.5 |
| HMSDMIGQNIRRLRTEKQMTQKALADKLFVTAQAVSRWENGEVEPSLSTVTEIARIFNVSADEILGI | -0.228 |
| HMSDPDPAEQALLRQFMTRYAAYRRRGQHPAGAFRTASLEVFGQEPSGDLRDVIVDLESGLV | -0.234 |
| HMSDPELNDNEKKIYDIIFNKKSMDLTELKNLSELSNKQWDKGIKSLSKQDFVKVIKTEEALIVELV | -0.509 |
| HMSDPSAQADALFNEGKTAEAFNVLLRLIEDSPEDQREDYRVRLLDLFRIAGNTPEVKAARRRLSALLM | -0.237 |
| HMSDRFVRIVMNDGTVKLGQMISEDADFIRLKTNNLGELNIPKYLVLDMMDLTRSEYVRLSISNAG | -0.282 |
| HMSDSAFAEMRRELEALRNSNAEYERALSNFFPEAEDKALAAEAFYQNREYDELVAEREEANVIDGLKR | -0.198 |
| HMSDSISLTLNGDLRRFRAHATIADLVRDIGLDPVKVAVERNLEIVSRSTLEDVVLADGDRLEIVHFV | -2.23 |
| HMSDSLVLTGVAYVDGKPVVTLFDKVKKESLVVTDQPNLKGWTLVEATQSSDIKRATAKVNIGGEPVSIRY | -0.0165 |
| HMSDTFENILQRLIKATGRKNASEMANALGLSPQSVYSAKTKGKIPPAWIFAAAERFNASADWIYFGY | -1.5 |
| HMSDTSAIEKIIDEVLSDESSQKAINDIKNGNEKVYGFLVGQVMKKSQGKANPGLVQKMLREKIAK | 0.116 |
| HMSDYKSALQEAVQTNKQSIEYVLIKESGPAHNKTFTFEVRIDNISYGVGTAKSKKEAEQIAAKDALDKLV | -0.0877 |
| HMSDYVLLYSGLNTSDTTFLAYSFQEKGIRYKMPNPDEIEVRVQDVDQARRIAAGAQLGGQVS | -0.536 |
| HMSEEGTIPDVSGQDEASAQKALENAGFTNIKSEAVYSEEEQGTVIDTNPTAGTKVSKDTEITMQVSKGSE | 0.248 |
| HMSEEKLVFSIPDDIETMRIDKAIALETHLSRAQIAELFKENKILLNSKNSKRSEKVKPGDKISLEFIPKI | -0.0442 |
| HMSEEVKSQPISILDLSTRASNGLKNEGIETIGELVKYSEDELLGLDKFGQNSLKEIKKKLEEIGLTLKEH | 0.00703 |
| HMSEFLTIVRAVYSGLSRRKVAAMHKVSRNTVSLYLRQARDQGWLTLEDLEKLDDLTVSQGVS | -2.08 |
| HMSEFVIPLAKYNKALYTQVSLGMRFRMLFETEDSGVRRYMGTITGIGDLDPIRWKNSHWRNLQV | 0.191 |

| Sequence | soluble fraction (log2) |
| --- | --- |
| HMSEHLTLVVSDEDAGHRVDQFLVSRLAHMTRSQIQKLIKDGQVTIDTKLVRASTTVHTDNIVTIEFPPAV | -1.21 |
| HMSEKLTLEAANEAAGMRIDKWLAMQLPELSRSRIEALISGGGVVVNGKNPSKSLKLKGGEQIELEIPE | -0.0607 |
| HMSELLIVGSEQDNTRLDRFLADQYEEYTRSFLQKLIDQGNVSINGISVKKSGIKLKENDEIAVTLPEPQ | 0.646 |
| HMSELPLTQKVAIVMVALGEEASGEVMKHLSDYEIEEITQAIAGLKNISVELMDQILEEYEQHLIAG | -0.515 |
| HMSELTKEIGKRIHDFRKSRGLNQEELARLIYKSKATLSKYEKGEIAIDLDTLKQLALALHVRMEQLLPPT | -1.5 |
| HMSENDTILAKFVSVMGNKNLELVIFPDIAYLKGQVSNPEDKTKAETVAQSLLGGKPLVSLIEFE | -0.332 |
| HMSENIQLQKEQLYQLIAQLPEQRQKIFRLHKIDNYSYQEISDFTGLSRKTIANHIYLAHQFILKKVKK | -3.76 |
| HMSENKIMEIVQDLAREKSVILISHRLANVTAADKILYMEQGKIAESGTHEQLMAQNKAYAALFNKQQEL | -0.0206 |
| HMSENLESEFFGIVVITQTLLQKELRDKPMTVELIRKTVEDVMSKHYSDSSVDKAKVEEELIRRFSTW | -1.32 |
| HMSENMSQDLAQWYRLQQALHPNLDAPELWATDLTSQQRTVRDQLIQQWAQEKRDSLWSEISGD | -0.0639 |
| HMSEPFDMAVPLTSGGRRLDQVLAELLPQHSRNRLQGWIRDGLLTLDGVTVTEPKRKLAGGEQLALLLP | -0.169 |
| HMSEPTLESLRAEGAHHYDPARFHYLEVLARRMPGQHAAVQQVLASRLREAVAAYAGRRSLI | -0.157 |
| HMSEQSEALRTGLDQLPINQRTALTLFHLHELNQSEVAKIMNISVGAVESLLFRGRQKMKQLLTSD | -1.39 |
| HMSERIITFGEATREAMLEEMRADERVFVYGEDIAKQGGIFGQFAGMKDEFPERVLDTPISETALVGAG | 0.157 |
| HMSERVVVPDLTGKDLVAAQSELREISLAGREEGPGDKVRRQFPVAGVKVPKDTVVILYTED | 0.0278 |
| HMSESAGKALDILFYLARVEDEVSLARLSKETGMNKATALRYLAVLESWGVVEKRPSGWSLGLSLFELGSK | -2.05 |
| HMSESGTFRAEAADAGRRLDVALAERLRLSRAAAQRLIAAGLVLVEGSPARKRQILHAGETVAWRAAPP | -1.03 |
| HMSESLLTAAGFKTIAATTPEQKRHLEWLHPDQVTAVQLTGQHYYVYPDVAKSQLFVGTPKEYQAYLALRT | -0.16 |
| HMSESLRDLVLSLIPEDGSTIGNRALITRLREDLPDLTDEDYHEVRDQLIAEGVLAKGRGQGGSVARANG | 0.311 |
| HMSETIVFGQQKAINTLSSEAGLSSAELNNYLKKRYQRPLFQLTVSEGADLIQGFQDGTLTKASITQYVSQ | -0.0878 |
| HMSETQDQTTIEIEDMITVGTLAERLSIPVSTLIGELMKNGVMATVNEKIDFDTAQIIVGELKLPIELSKK | 0.0487 |
| HMSEYEYALHEFGITKKQSQRIFDRLSIADLEERINAIQTTLKQRSDIDNPAAYAWTVLNAE | -0.0603 |
| HMSEYLDIHMAMEKLNRKEQLFVHLRFYEGLTQSEIAQRLFTSQVQISRLEKSVLEKMRQILSK | -2.2 |
| HMSEYTRGELVSSLEAGEVAAVSIRPNRETPTGEAQIVLSDGQHRVLYVTDVREIEELVSSYGLNPQVEK | 0.196 |
